Earlier results, collected in PMC11970764.

Target: HIF-1α PAS-B (Homo sapiens) (UniProt Q16665)
Experiment: ITC

UniProt Q16665, sequence (Q16665 238-349): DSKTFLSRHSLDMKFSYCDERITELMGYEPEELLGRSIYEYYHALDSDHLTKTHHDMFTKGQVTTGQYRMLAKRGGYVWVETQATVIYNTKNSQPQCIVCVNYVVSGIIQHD

For Cyclo-C(TAT)LLFVY, the Kd is given as 124 nM.
